The results in this text go back to US20230220081A1 (Xencor, published 2023).

In the assay the target is T1, PD-1 on SEB-stimulated human T cells (human, UniProt Q15116 25-288).
T1 construct: whole, on cells; also called SEB-stimulated T cells
Briefly: flow cytometry on SEB-stimulated human PBMCs, APC anti-human kappa MFI on CD3-FITC+ cells. The procedure:
Binding of anti-PD-1 clone 1C11 to T cells was measured in an SEB-stimulated PBMC assay. Staphylococcal Enterotoxin B (SEB) is a superantigen that causes T cell activation and proliferation in a manner similar to that achieved by activation via the T cell receptor (TCR), including expression of checkpoint receptors such as PD-1. Human PBMCs were stimulated with […] for 3 days. Following stimulation, PBMCs were incubated with the indicated test articles at indicated concentrations at 4° C. for 30 min. PBMCs were stained with anti-CD3-FITC (UCHT1) and APC labeled antibody for human immunoglobulin κ light chain. The binding of the test articles to T cells as indicated by APC MFI on FITC+ cells is depicted in FIG. 17.

T1 sequence (Q15116 25-288): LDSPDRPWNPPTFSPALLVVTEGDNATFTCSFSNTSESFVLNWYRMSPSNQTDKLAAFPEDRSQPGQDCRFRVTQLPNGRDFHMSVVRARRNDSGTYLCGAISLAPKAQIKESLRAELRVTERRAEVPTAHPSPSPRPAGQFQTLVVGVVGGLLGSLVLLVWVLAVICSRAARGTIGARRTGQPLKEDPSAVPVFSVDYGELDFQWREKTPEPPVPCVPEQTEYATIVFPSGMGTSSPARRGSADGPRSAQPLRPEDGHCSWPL

B1: XENP21575, chimeric anti-PD-1 antibody based on the variable regions of hybridoma clone 1C11 and human IgG1 with E233P/L234V/L235A/G236del/S267K substitutions … (antibody, V domains shown)
VH: QIQLVQSGPELKKPGETVKISCRASGYTFTHYGMNWVKQAPGKGLKWMGWINTYTGEPTYADDFKGRFAFSLETSASTAYLQINNLKNEDTATYFCARDYYGSSPYWGQGTTLTVSS
VL: DVLMTQTPLSLPVSLGDQASISCRSSQSIVHSNGNTYLEWYLQKPGQSPKLLIYKVSNRFSGVPDRFSGSGSGTDFTLKISRVEAEDLGVYYCFQGSHVPNTFGGGTKLEIKR
notes: Mouse hybridoma variable regions on human IgG1 with FcγR ablation substitutions (EU numbering); also called anti-PD-1 clone 1C11
As for B1, the binding result was “binds”.
